From the supplement of paper PMC12042874 come the findings set out here.

± gives the uncertainty stated by the source.

A short description of the data set: amyloid nucleation score (Sup35N fusion, yeast selection) (log enrichment); library NNK2; higher = more nucleation; inactive = no reads after selection. The procedure, abridged: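 Yeast lacking psi expressed peptides of 20 random codons fused to Sup35N, received 100 μM copper sulfate for 24 hours, and were then grown for 7 days at 30°C on medium lacking adenine and uracil. Illumina sequencing of input and output plasmid inserts provided the reads. Nucleation scores are DiMSum log enrichments of output over input, centred on the mode of non-aggregating sequences. Any sequence with under 100 input reads was excluded.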
With CAPVCFFRGSLRCRSRLTWR, the amyloid nucleation score was -0.221 ± 1.1.
For the substance ILLRWNSTSTEVHHVGPTWV, the amyloid nucleation score came to 0.872 ± 0.42.
As to GMPQESHSYPLYEMLLGRVG, the amyloid nucleation score was -0.064 ± 0.3.
Under HLCGGHGLVFFWGFVTMKCG stands 0.369 ± 0.8; under ARYISCRKEFRYLESA, 0.069 ± 0.37.
In the case of ENKPTRDLYSTTR, the amyloid nucleation score is -1.19 ± 0.54.
Under NRTFSHWTCLYLFLSTLKRE stands -1.06 ± 0.76; under PQHYVMGYVCWDVSVVLRSP, 2.91 ± 0.092.
SMILT displayed an amyloid nucleation score of -1.11 ± 1.1.
Next, ESFVRVLSFFCVSWYGSMVR: 1.75 ± 0.24; PASTREDGWFYCAHSVVSSQ: 0.346 ± 0.54.
Substance LISLTPRSSRPSNERNSSTL yielded an amyloid nucleation score of 1.63 ± 0.47.
Substance CVSFVQSFCYIHIQLNYHCR yielded an amyloid nucleation score of -0.43 ± 1.1.
Next, LTLAS: 0.49 ± 0.25.
Next, GFIVRMDTMLSSALASYCRL: -0.25 ± 0.63; IPYLNFDLYWLPVI: -0.792 ± 0.48; TYDYMKRDIMFTWLKRERKA: 1.04 ± 0.33.
FFEMFGCHMFLLMAYLTI gave an amyloid nucleation score of 0.164 ± 0.63.
The substance PCGNPLQRYS displayed an amyloid nucleation score of 1.62 ± 0.4.
Substance TFAIIRIII gave an amyloid nucleation score of 1.37 ± 0.33.
Turning to NNNCGRLGVYI, the amyloid nucleation score is -0.962 ± 1.
Under LQMLLHDQTEMFEYT stands -0.112 ± 0.28; under VCYLLFFKRSSYKFSINHYC, “inactive”; under LMYSTFMYHRKHWLLALNQN, 0.034 ± 1.1.
RESTTRMSAGNVYRVTHKHS returned an amyloid nucleation score of 0.224 ± 0.4.
Under RPVCKFL stands 0.275 ± 0.5.
Next, TGFKCSLLTY: -0.91 ± 0.62; KRQSRAVMVS: 0.037 ± 0.63.
WSCQESIVRSRDDYSRFRCG: the amyloid nucleation score amounted to 3.42 ± 0.13.
Next, SPIYYIKGYFLLISKCFADR: 4.56 ± 0.073; YDQSICLVRNVIAIYDMGSV: 6.81 ± 0.084; WYSVLSFDSFFWPWALLVVY: -1.16 ± 0.49.
NVKSYKGQRFVAFGGGSVYA gave an amyloid nucleation score of 0.567 ± 0.32.
Substance FVCGGILFLLCFLE showed an amyloid nucleation score of 2.56 ± 0.12.
SVVVWDSSPCIGGSRVADS returned an amyloid nucleation score of 0.56 ± 0.57.
Under HKGCIIVWKTKRGLCRSARC stands -0.384 ± 0.79; under VVFNFFCPNHGAVTMFSCFH, 8.838 ± 0.03; under RCKYWNTKCTTIYRGRVSYL, -0.733 ± 0.29.
Substance ARNYGRTWHTSEESWYFGEV came in with an amyloid nucleation score of 5.8 ± 0.081.
Regarding VYEVNGLSAGRMMSICNRRN, the amyloid nucleation score was -0.467 ± 0.44.
Regarding IGRCDELGRCRTRARACSGL, the amyloid nucleation score was 7.78 ± 0.084.
Next, SIIGVYLCFLSFRTNVLWKT: -0.122 ± 0.27.
Under NIYIWVSTMFLLKSEQSSSN stands 6.038 ± 0.058; under LNYCHILSMYGNIAIIRSQF, 4.48 ± 0.048; under LFVALVGDLFCCWVCGSYGV, -1.43 ± 0.78.
The substance PRSVVPYR showed an amyloid nucleation score of 0.5 ± 0.31.
With NVSVGVPLQRTILLDLCTGT, the amyloid nucleation score result is “inactive”.
Next, CWSTQDHLNCVID: “inactive”; FDKRS: “inactive”.
In the case of SHGFFMAVEGLNCVRFVIIL, the amyloid nucleation score result is “inactive”.
Under SPPLYARHCYILERITTDRM stands -1.73 ± 0.62; under DMFIVYSSLYRSFLIFESLH, -2.42 ± 0.75.
Take IIWYTTFVDLLTIIDDGRLW: the amyloid nucleation score came to 0.499 ± 0.49.
Under QCSIVWR stands 6.61 ± 0.076.
With LCLEAWERRCI, the amyloid nucleation score is -0.588 ± 0.17.
Next, NHVNNLIHDFRPALEHLRDT: -0.134 ± 0.45; ILNLLLVCLRIFDGLYLTRY: -1.06 ± 1.1.
